From PMC10914587 come the findings set out here.

Series [1] has as its target T1, sclerostin loop 3-6 (sites 127-128 mutated) (UniProt Q9BQB4 135-169, G151A;E152A).
T1 chain: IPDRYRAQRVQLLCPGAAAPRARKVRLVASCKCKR
As to the kind of experiment: BLI.

Another series concerns the target sclerostin (UniProt Q9BQB4 24-213). As to the kind of experiment: BLI.

Chain of sclerostin (Q9BQB4 24-213): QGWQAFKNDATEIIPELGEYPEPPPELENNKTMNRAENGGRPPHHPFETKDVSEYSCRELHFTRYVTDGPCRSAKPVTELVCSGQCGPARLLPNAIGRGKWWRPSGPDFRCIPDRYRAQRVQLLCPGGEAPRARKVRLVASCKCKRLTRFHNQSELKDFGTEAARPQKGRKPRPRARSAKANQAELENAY

For CGGGGTGTGGGTTCGTCGTTAGCTTGATTTGGCAGCTGCC (ssDNA) [Aptscl56], the binding result in series [1] was “no binding”. The Kd (in general, the equilibrium constant for the complex coming apart) in the series with sclerostin came out at 68.6 nM.
